Molecular target: T1, phospho-BAD (recombinant BAD as GST-fusion protein, phosphorylated in vitro with PKA and [gamma-32P]ATP), Q61337
T1 chain: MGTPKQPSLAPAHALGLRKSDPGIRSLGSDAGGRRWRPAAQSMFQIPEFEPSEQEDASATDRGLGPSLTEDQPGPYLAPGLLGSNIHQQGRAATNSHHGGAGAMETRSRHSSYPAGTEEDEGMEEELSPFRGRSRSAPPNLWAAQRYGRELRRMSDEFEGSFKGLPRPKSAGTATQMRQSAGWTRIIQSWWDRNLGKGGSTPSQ

B1: PP2Cβ from bovine brain (protein phosphatase type 2C beta), recombinant, expressed in E. coli (protein)
chain: MGAFLDKPKTEKHNAHGAGNGLRYGLSSMQGWRVEMEDAHTAVVGIPHGLEDWSFFAVYDGHAGSRVANYCSTHLLEHITNNEDFRAAGKSGSALEPSVENVKNGIRTGFLKIDEYMRNFSDLRNGMDRSGSTAVGVMISPKHIYFINCGDSRAVLYRSGQVCFSTQDHKPCNPREKERIQNAGGSVMIQRVNGSLAVSRALGDYDYKCVDGKGPTEQLVSPEPEVYEILRAEEDEFIILACDGIWDVMSNEELCEFVKSRLEVSDDLENVCNWVVDTCLHKGSRDNMSIVLVCFSNAPKVSDEAMRKDSELDKYLESRVEEIMEKSGEEGMPDLAHVMRILSAENIPNLPPGGGLAGKRHVIEAVYSRLNPHRESDGGAGDLEDPW
dephosphorylation of [32P]BAD by PP2C in vitro (SDS-PAGE, autoradiography): The dephosphorylation of phospho-BAD by PP2C is dependent as well on time and concentration. | dephosphorylation of phospho-BAD sites by PP2C: Here it could be shown, that PP2C preferably dephosphorylates P-ser^155 compared to P-ser^112 and P-ser^136.
